Data reported in the supplement of paper PMC5998384.

Legend:
HeLa Kyoto [1] = test: solubility in G1/S (NP-40 vs SDS abundance) (log2 ratio); higher = more soluble; conditions: cell cycle stage: G1/S
HeLa Kyoto [2] = test: solubility change mitosis vs G1/S (difference of NP-40 vs SDS log2 ratios) (log2 ratio difference); higher = more soluble in mitosis
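Wherever solubility change mitosis vs G1/S (difference of NP-40 vs SDS log2 ratios) is given: synchronized HeLa Kyoto cells (double thymidine block for G1/S, nocodazole release for mitosis), protein amounts in NP-40 versus SDS lysates quantified by mass spectrometry, three biological replicates.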
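Wherever solubility in G1/S (NP-40 vs SDS abundance) is given: HeLa Kyoto cells arrested at G1/S by double thymidine block, proteins quantified by TMT10plex mass spectrometry in mild NP-40 versus SDS extracts, three biological replicates.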

MAP1A, sequence (chain, as listed by the source): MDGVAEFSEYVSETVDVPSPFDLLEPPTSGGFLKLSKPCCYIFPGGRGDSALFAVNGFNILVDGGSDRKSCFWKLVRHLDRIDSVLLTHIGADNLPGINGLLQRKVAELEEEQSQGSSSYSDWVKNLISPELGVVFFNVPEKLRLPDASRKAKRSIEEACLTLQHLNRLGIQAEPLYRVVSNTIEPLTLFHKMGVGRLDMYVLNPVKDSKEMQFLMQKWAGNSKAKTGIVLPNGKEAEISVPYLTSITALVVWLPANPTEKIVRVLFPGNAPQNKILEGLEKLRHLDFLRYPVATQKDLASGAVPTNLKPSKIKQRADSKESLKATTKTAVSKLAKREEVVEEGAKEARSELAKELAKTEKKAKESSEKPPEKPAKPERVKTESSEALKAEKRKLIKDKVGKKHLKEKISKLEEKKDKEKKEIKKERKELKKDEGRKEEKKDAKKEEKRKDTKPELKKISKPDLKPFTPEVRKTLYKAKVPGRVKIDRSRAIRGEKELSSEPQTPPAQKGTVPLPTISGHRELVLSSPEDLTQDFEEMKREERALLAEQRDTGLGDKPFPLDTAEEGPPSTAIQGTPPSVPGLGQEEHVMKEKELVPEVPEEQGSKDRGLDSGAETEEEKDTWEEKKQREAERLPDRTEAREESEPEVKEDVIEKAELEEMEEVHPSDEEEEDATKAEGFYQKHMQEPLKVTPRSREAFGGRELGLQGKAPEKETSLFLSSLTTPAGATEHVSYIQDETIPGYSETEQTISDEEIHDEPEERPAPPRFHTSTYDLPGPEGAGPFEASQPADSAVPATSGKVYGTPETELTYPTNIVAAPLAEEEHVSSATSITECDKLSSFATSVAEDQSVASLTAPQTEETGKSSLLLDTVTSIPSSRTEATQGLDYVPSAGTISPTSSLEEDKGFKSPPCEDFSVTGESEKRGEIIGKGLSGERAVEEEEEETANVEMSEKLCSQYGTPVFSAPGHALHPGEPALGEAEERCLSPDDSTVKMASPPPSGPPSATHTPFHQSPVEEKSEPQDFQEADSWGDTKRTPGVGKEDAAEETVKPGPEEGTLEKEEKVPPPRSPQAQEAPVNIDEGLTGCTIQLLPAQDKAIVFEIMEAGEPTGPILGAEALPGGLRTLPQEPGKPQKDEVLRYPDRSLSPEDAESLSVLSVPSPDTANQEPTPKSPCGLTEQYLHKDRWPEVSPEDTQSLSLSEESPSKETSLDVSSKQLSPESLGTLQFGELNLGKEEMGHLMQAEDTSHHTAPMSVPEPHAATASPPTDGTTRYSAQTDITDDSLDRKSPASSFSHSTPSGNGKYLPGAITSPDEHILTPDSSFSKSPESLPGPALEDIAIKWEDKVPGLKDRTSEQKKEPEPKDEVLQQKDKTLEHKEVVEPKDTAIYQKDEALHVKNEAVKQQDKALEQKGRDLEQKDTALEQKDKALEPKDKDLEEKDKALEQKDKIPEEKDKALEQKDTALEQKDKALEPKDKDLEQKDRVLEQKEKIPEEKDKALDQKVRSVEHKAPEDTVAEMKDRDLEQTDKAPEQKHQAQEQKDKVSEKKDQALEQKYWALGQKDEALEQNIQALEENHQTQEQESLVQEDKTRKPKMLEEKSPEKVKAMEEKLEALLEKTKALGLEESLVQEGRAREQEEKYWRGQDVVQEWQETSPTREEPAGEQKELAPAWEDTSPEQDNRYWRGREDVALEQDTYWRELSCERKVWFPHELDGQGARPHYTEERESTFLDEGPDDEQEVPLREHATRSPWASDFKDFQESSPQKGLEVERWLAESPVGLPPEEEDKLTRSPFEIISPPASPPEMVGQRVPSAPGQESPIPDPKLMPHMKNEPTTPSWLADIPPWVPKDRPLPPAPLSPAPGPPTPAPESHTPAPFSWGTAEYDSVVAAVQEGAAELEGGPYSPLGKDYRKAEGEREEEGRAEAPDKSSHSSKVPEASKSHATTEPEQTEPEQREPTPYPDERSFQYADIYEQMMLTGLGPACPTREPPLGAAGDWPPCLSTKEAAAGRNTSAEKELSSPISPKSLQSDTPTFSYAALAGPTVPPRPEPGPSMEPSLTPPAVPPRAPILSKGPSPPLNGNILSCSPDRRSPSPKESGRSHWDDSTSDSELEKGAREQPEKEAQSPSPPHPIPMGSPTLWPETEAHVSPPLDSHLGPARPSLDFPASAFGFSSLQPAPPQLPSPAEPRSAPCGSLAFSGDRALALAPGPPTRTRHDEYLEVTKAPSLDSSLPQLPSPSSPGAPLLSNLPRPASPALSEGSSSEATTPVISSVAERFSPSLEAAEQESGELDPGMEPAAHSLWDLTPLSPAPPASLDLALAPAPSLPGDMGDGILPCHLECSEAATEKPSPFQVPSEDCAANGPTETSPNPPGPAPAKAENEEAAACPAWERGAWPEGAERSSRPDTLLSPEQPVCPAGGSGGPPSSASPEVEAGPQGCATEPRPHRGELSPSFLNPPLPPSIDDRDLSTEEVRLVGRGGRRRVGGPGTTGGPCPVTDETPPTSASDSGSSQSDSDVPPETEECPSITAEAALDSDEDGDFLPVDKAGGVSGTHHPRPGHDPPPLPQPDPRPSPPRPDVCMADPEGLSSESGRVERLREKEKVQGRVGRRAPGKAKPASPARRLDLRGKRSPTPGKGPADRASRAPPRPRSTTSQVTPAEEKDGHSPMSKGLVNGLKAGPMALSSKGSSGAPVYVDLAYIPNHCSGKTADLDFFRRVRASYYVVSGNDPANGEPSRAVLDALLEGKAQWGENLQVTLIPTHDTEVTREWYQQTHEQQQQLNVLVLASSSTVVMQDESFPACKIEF

In the case of “MAGAGRGAAVSRVQAGPGSPRRARGRQQVQPLGKQRPAPWPGLRSKEKKKVNCKPKNQDEQEIPFRLREIMRSRQEMKNPISNKKRKKAAQVTFRKTLEKEAKGEEPDIAVPKFKQRKGESDGAYIHRMQQEAQHVLFLSKNQAIRQPEVQAAPKEKSEQKKAKKAFQKRRLDKVRRKKEEKAADRLEQELLRDTVKFGEVVLQPPELTARPQRSVSKDQPGRRSQMLRMLLSPGGVSQPLTASLARQRIVEEERERAVQAYRALKQRQQQLHGERPHLTSRKKPEPQL [CCDC137]”, the “solubility in G1/S (log2)” value (HeLa Kyoto [1]) is reported as -1.04 and the “solubility change mitosis (log2)” value (HeLa Kyoto [2]) is reported as 0.83.

In the case of “MAGALVRKAADYVRSKDFRDYLMSTHFWGPVANWGLPIAAINDMKKSPEIISGRMTFALCCYSLTFMRFAYKVQPRNWLLFACHATNEVAQLIQGGRLIKHEMTKTASA [MPC1]”, the “solubility in G1/S (log2)” value (HeLa Kyoto [1]) is reported as -0.461 and the “solubility change mitosis (log2)” value (HeLa Kyoto [2]) is reported as -0.165.

In the case of “MAGGPGPGEPAAPGAQHFLYEVPPWVMCRFYKVMDALEPADWCQFAALIVRDQTELRLCERSGQRTASVLWPWINRNARVADLVHILTHLQLLRARDIITAWHPPAPLPSPGTTAPRPSSIPAPAEAEAWSPRKLPSSASTFLSPAFPGSQTHSGPELGLVPSPASLWPPPPSPAPSSTKPGPESSVSLLQGARPFPFCWPLCEISRGTHNFSEELKIGEGGFGCVYRAVMRNTVYAVKRLKENADLEWTAVKQSFLTEVEQLSRFRHPNIVDFAGYCAQNGFYCLVYGFLPNGSLEDRLHCQTQACPPLSWPQRLDILLGTARAIQFLHQDSPSLIHGDIKSSNVLLDERLTPKLGDFGLARFSRFAGSSPSQSSMVARTQTVRGTLAYLPEEYIKTGRLAVDTDTFSFGVVVLETLAGQRAVKTHGARTKYLKDLVEEEAEEAGVALRSTQSTLQAGLAADAWAAPIAMQIYKKHLDPRPGPCPPELGLGLGQLACCCLHRRAKRRPPMTQVYERLEKLQAVVAGVPGHSEAASCIPPSPQENSYVSSTGRAHSGAAPWQPLAAPSGASAQAAEQLQRGPNQPVESDESLGGLSAALRSWHLTPSCPLDPAPLREAGCPQGDTAGESSWGSGPGSRPTAVEGLALGSSASSSSEPPQIIINPARQKMVQKLALYEDGALDSLQLLSSSSLPGLGLEQDRQGPEESDEFQS [IRAK1]”, the “solubility in G1/S (log2)” value (HeLa Kyoto [1]) is reported as 0.247 and the “solubility change mitosis (log2)” value (HeLa Kyoto [2]) is reported as 0.07.

With “MAGPQMGGSAEDHPPRKRHAAEKQKKKTVIYTKCFEFESATQRPIDRQRYDENEDLSDVEEIVSVRGFSLEEKLRSQLYQGDFVHAMEGKDFNYEYVQREALRVPLIFREKDGLGIKMPDPDFTVRDVKLLVGSRRLVDVMDVNTQKGTEMSMSQFVRYYETPEAQRDKLYNVISLEFSHTKLEHLVKRPTVVDLVDWVDNMWPQHLKEKQTEATNAIAEMKYPKVKKYCLMSVKGCFTDFHIDFGGTSVWYHVFRGGKIFWLIPPTLHNLALYEEWVLSGKQSDIFLGDRVERCQRIELKQGYTFFIPSGWIHAVYTPVDSLVFGGNILHSFNVPMQLRIYEIEDRTRVQPKFRYPFYYEMCWYVLERYVYCVTQRSHLTQEYQRESMLIDAPRKPSIDGFSSDSWLEMEEEACDQQPQEEEEKDEEGEGRDRAPKPPTDGSTSPTSTPSEDQEALGKKPKAPALRFLKRTLSNESEESVKSTTLAVDYPKTPTGSPATEVSAKWTHLTEFELKGLKALVEKLESLPENKKCVPEGIEDPQALLEGVKNVLKEHADDDPSLAITGVPVVTWPKKTPKNRAVGRPKGKLGPASAVKLAANRTTAGARRRRTRCRKCEACLRTECGECHFCKDMKKFGGPGRMKQSCIMRQCIAPVLPHTAVCLVCGEAGKEDTVEEEEGKFNLMLMECSICNEIIHPGCLKIKESEGVVNDELPNCWECPKCNHAGKTGKQKRGPGFKYASNLPGSLLKEQKMNRDNKEGQEPAKRRSECEEAPRRRSDEHSKKVPPDGLLRRKSDDVHLRKKRKYEKPQELSGRKRASSLQTSPGSSSHLSPRPPLGSSLSPWWRSSLTYFQQQLKPGKEDKLFRKKRRSWKNAEDRMALANKPLRRFKQEPEDELPEAPPKTRESDHSRSSSPTAGPSTEGAEGPEEKKKVKMRRKRRLPNKELSRELSKELNHEIQRTENSLANENQQPIKSEPESEGEEPKRPPGICERPHRFSKGLNGTPRELRHQLGPSLRSPPRVISRPPPSVSPPKCIQMERHVIRPPPISPPPDSLPLDDGAAHVMHREVWMAVFSYLSHQDLCVCMRVCRTWNRWCCDKRLWTRIDLNHCKSITPLMLSGIIRRQPVSLDLSWTNISKKQLSWLINRLPGLRDLVLSGCSWIAVSALCSSSCPLLRTLDVQWVEGLKDAQMRDLLSPPTDNRPGQMDNRSKLRNIVELRLAGLDITDASLRLIIRHMPLLSKLHLSYCNHVTDQSINLLTAVGTTTRDSLTEINLSDCNKVTDQCLSFFKRCGNICHIDLRYCKQVTKEGCEQFIAEMSVSVQFGQVEEKLLQKLS [KDM2B]” the “solubility in G1/S (log2)” value (HeLa Kyoto [1]) was -0.295 and the “solubility change mitosis (log2)” value (HeLa Kyoto [2]) was 0.226.

With “MAGWWPALSRAARRHPWPTNVLLYGSLVSAGDALQQRLQGREANWRQTRRVATLVVTFHANFNYVWLRLLERALPGRAPHALLAKLLCDQVVGAPIAVSAFYVGMSILQGKDDIFLDLKQKFWNTYLSGLMYWPFVQLTNFSLVPVQWRTAYAGVCGFLWATFICFSQQSGDGTFKSAFTILYTKGTSATEGYPKK [MPV17L]” the “solubility in G1/S (log2)” value (HeLa Kyoto [1]) was -0.145 and the “solubility change mitosis (log2)” value (HeLa Kyoto [2]) was -0.192.

“MAKPAATAAAASEELSQVPDEELLRWSKEELARRLRRAEGEKVGLMLEHGGLMRDVNRRLQQHLLEIRGLKDVNQRLQDDNQELRELCCFLDDDRQKGRKLAREWQRFGRHAAGAVWHEVARSQQKLRELEARQEALLRENLELKELVLLLDEERAALAATGAASGGGGGGGGAGSRSSIDSQASLSGPLSGGAPGAGARDVGDGSSTSSAGSGGSPDHHHHVPPPLLPPGPHKAPDGKAGATRRSLDDLSAPPHHRSIPNGLHDPSSTYIRQLESKVRLLEGDKLLAQQAGSGEFRTLRKGFSPYHSESQLASLPPSYQDSLQNGPACPAPELPSPPSAGYSPAGQKPEAVVHAMKVLEVHENLDRQLQDSCEEDLSEKEKAIVREMCNVVWRKLGDAASSKPSIRQHLSGNQFKGPL [CCDC85C]” was tested, and the “solubility in G1/S (log2)” value (HeLa Kyoto [1]) was 0.216 and the “solubility change mitosis (log2)” value (HeLa Kyoto [2]) was 0.214.

In the case of “MAKRRAAEPVTFHVPWKRLLLCDFAEQPPPPPLWIRPPGVAHAGQLLGVPEQHRKRKIDAGTMAEPSASPSKRRDSGDNSAPSGQEREDHGLETGDPPLPPPPVLPGPGEELPGARLPGGGGDDGAGRAGPPRGDWGVASRQHNEEFWQYNTFQYWRNPLPPIDLADIEDLSEDTLTEATLQGRNEGAEVDMES [C9ORF40]”, the “solubility in G1/S (log2)” value (HeLa Kyoto [1]) is reported as 0.182 and the “solubility change mitosis (log2)” value (HeLa Kyoto [2]) is reported as -0.227.

“MAKSNGENGPRAPAAGESLSGTRESLAQGPDAATTDELSSLGSDSEANGFAERRIDKFGFIVGSQGAEGALEEVPLEVLRQRESKWLDMLNNWDKWMAKKHKKIRLRCQKGIPPSLRGRAWQYLSGGKVKLQQNPGKFDELDMSPGDPKWLDVIERDLHRQFPFHEMFVSRGGHGQQDLFRVLKAYTLYRPEEGYCQAQAPIAAVLLMHMPAEQAFWCLVQICEKYLPGYYSEKLEAIQLDGEILFSLLQKVSPVAHKHLSRQKIDPLLYMTEWFMCAFSRTLPWSSVLRVWDMFFCEGVKIIFRVGLVLLKHALGSPEKVKACQGQYETIERLRSLSPKIMQEAFLVQEVVELPVTERQIEREHLIQLRRWQETRGELQCRSPPRLHGAKAILDAEPGPRPALQPSPSIRLPLDAPLPGSKAKPKPPKQAQKEQRKQMKGRGQLEKPPAPNQAMVVAAAGDACPPQHVPPKDSAPKDSAPQDLAPQVSAHHRSQESLTSQESEDTYL [TBC1D10A]” was tested, and the “solubility in G1/S (log2)” value (HeLa Kyoto [1]) was 0.438 and the “solubility change mitosis (log2)” value (HeLa Kyoto [2]) was -0.147.

In the case of “MALEGMSKRKRKRSVQEGENPDDGVRGSPPEDYRLGQVASSLFRGEHHSRGGTGRLASLFSSLEPQIQPVYVPVPKQTIKKTKRNEEEESTSQIERPLSQEPAKKVKAKKKHTNAEKKLADRESALASADLEEEIHQKQGQKRKNSQPGVKVADRKILDDTEDTVVSQRKKIQINQEEERLKNERTVFVGNLPVTCNKKKLKSFFKEYGQIESVRFRSLIPAEGTLSKKLAAIKRKIHPDQKNINAYVVFKEESAATQALKRNGAQIADGFRIRVDLASETSSRDKRSVFVGNLPYKVEESAIEKHFLDCGSIMAVRIVRDKMTGIGKGFGYVLFENTDSVHLALKLNNSELMGRKLRVMRSVNKEKFKQQNSNPRLKNVSKPKQGLNFTSKTAEGHPKSLFIGEKAVLLKTKKKGQKKSGRPKKQRKQK [RBM34]”, the “solubility in G1/S (log2)” value (HeLa Kyoto [1]) is reported as -2.26 and the “solubility change mitosis (log2)” value (HeLa Kyoto [2]) is reported as 1.46.

In the case of “MALKGRALYDFHSENKEEISIQQDEDLVIFSETSLDGWLQGQNSRGETGLFPASYVEIVRSGISTNHADYSSSPAGSPGAQVSLYNSPSVASPARSGGGSGFLSNQGSFEEDDDDDWDDWDDGCTVVEEPRAGGLGTNGHPPLNLSYPGAYPSQHMAFRPKPPLERQDSLASAKRGSVVGRNLNRFSCFVRSGVEAFILGDVPMMAKIAETYSIEMGPRGPQWKANPHPFACSVEDPTKQTKFKGIKSYISYKLTPTHAASPVYRRYKHFDWLYNRLLHKFTVISVPHLPEKQATGRFEEDFIEKRKRRLILWMDHMTSHPVLSQYEGFQHFLSCLDDKQWKMGKRRAEKDEMVGASFLLTFQIPTEHQDLQDVEDRVDTFKAFSKKMDDSVLQLSTVASELVRKHVGGFRKEFQKLGSAFQAISHSFQMDPPFCSEALNSAISHTGRTYEAIGEMFAEQPKNDLFQMLDTLSLYQGLLSNFPDIIHLQKGAFAKVKESQRMSDEGRMVQDEADGIRRRCRVVGFALQAEMNHFHQRRELDFKHMMQNYLRQQILFYQRVGQQLEKTLRMYDNL [SNX33]”, the “solubility in G1/S (log2)” value (HeLa Kyoto [1]) is reported as -0.337 and the “solubility change mitosis (log2)” value (HeLa Kyoto [2]) is reported as -0.033.

In the case of “MALMQELYSTPASRLDSFVAQWLQPHREWKEEVLDAVRTVEEFLRQEHFQGKRGLDQDVRVLKVVKVGSFGNGTVLRSTREVELVAFLSCFHSFQEAAKHHKDVLRLIWKTMWQSQDLLDLGLEDLRMEQRVPDALVFTIQTRGTAEPITVTIVPAYRALGPSLPNSQPPPEVYVSLIKACGGPGNFCPSFSELQRNFVKHRPTKLKSLLRLVKHWYQQYVKARSPRANLPPLYALELLTIYAWEMGTEEDENFMLDEGFTTVMDLLLEYEVICIYWTKYYTLHNAIIEDCVRKQLKKERPIILDPADPTLNVAEGYRWDIVAQRASQCLKQDCCYDNRENPISSWNVKRARDIHLTVEQRGYPDFNLIVNPYEPIRKVKEKIRRTRGYSGLQRLSFQVPGSERQLLSSRCSLAKYGIFSHTHIYLLETIPSEIQVFVKNPDGGSYAYAINPNSFILGLKQQIEDQQGLPKKQQQLEFQGQVLQDWLGLGIYGIQDSDTLILSKKKGEALFPAS [OASL]”, the “solubility in G1/S (log2)” value (HeLa Kyoto [1]) is reported as -0.811 and the “solubility change mitosis (log2)” value (HeLa Kyoto [2]) is reported as 0.156.

In the case of “MAMQEKYPTEGISHVTSPSSDVIQKGSSLGTEWQTPVISEPFRSRFSRCSSVADSGDTAIGTSCSDIAEDFCSSSGSPPFQPIKSHVTIPTAHVMPSTLGTSPAKPNSTPVGPSSSKLPLSGLAESVGMTRNGDLGAMKHSPGLSRDLMYFSGATGENGIEQSWFPAVGHERQEEARKFDIPSMESTLNQSAMMETLYSDPHHRVRFHNPRTSTSKELYRVLPEAKKAPGSGAVFERNGPHSNSSGVLPLGLQPAPGLSKPLPSQVWQPSPDTWHPREQSCELSTCRQQLELIRLQMEQMQLQNGAICHHPAAFGPSLPILEPAQWISILNSNEHLLKEKELLIDKQRKHISQLEQKVRESELQVHSALLGRPAPFGDVCLLRLQELQRENTFLRAQFAQKTEALSREKIDLEKKLSASEVEVQLIRESLKVALQKHSEEVKKQEERVKGRDKHINNLKKKCQKESEQNREKQQRIETLERYLADLPTLEDHQKQSQQLKDSELKSTELQEKVTELESLLEETQAICREKEIQLESLRQREAEFSSAGHSLQDKQSVEETSGEGPEVEMESWQKRYDSLQKIVEKQQQKMDQLRSQVQSLEQEVAQEEGTSQALREEAQRRDSALQQLRTAVKELSVQNQDLIEKNLTLQEHLRQAQPGSPPSPDTAQLALELHQELASCLQDLQAVCSIVTQRAQGHDPNLSLLLGIHSAQHPETQLDLQKPDVIKRKLEEVQQLRRDIEDLRTTMSDRYAQDMGENCVTQ [CEP85]”, the “solubility in G1/S (log2)” value (HeLa Kyoto [1]) is reported as 0.35 and the “solubility change mitosis (log2)” value (HeLa Kyoto [2]) is reported as -0.194.

With MAP1A the “solubility in G1/S (log2)” value (HeLa Kyoto [1]) was -0.122 and the “solubility change mitosis (log2)” value (HeLa Kyoto [2]) was -0.0549.
